Test results reported in the DeepSol protein solubility set.

test: soluble on expression in E. coli; label from the status in PepcDB or PDB records

Question: For “MGHHHHHHSHMQWSKEEEAAARKKVKENSAVRVLLEEQVKYEREASKYWDTFYKIHKNKFFKDRNWLLREFPEILPVDQKPEEKARESSWDHVKTSATNRFSRMHCPTVPDEKNHYEKSSGSSEGQSKTESDFSNLDSEKHKKGPMETGLFPGSNATFRILEVGCGAGNSVFPILNTLENSPESFLYCCDFASGAVELVKSHSSYRATQCFAFVHDVCDDGLPYPFPDGILDVILLVFVLSSIHPDRTLFI”, which “soluble on expression in E. coli” value is on record?
Answer: Its value is “not soluble”.

Question: Which “soluble on expression in E. coli” value does the source give for “MGHHHHHHSHMSDIYQHFRKDERAFIDQALEWKRIVQEQYRMKLTDFLDPREQVILSAVTGQADVGLAFSGGYDRAERKRAILFPEYITPEESDFELQAFNVRYADKFVSVDHRSLLGALMGIGLKRQKFGDIVFSETAVQLIVSADTADFVAAQLTQAGKAAVSLEKIDLSDLNIPAVDVEIRDDTVSSLRLDAVCASMSRQSRQKSQTLVKNGLVKVNWKVVEDPSYIVAEGDMLSIRGFGRCSLTKIEGKTKKDKWRVTFERQK” here?
Answer: Its value is “not soluble”.

Question: For “MGHHHHHHSHMSGSAMQEGLSPNHLKKAKLMFFYTRYPSSNMLKTYFSDVKFNRCITSQLIKWFSNFREFYYIQMEKYARQAINDGVTSTEELSITRDCELYRALNMHYNKANDFEVPERFLEVAQITLREFFNAIIAGKDVDPSWKKAIYKVICKLDSEVPEIFKSPNCLQELLHE”, which “soluble on expression in E. coli” value is on record?
Answer: Its value is “soluble”.

Question: With “MGHHHHHHSHMSPVLTQHVSQPITLDEQTQKMKRHLLQDIRRSAYVYRVDCGGCNACEIEIFAAITPVFDAERFGIKVVSSPRHADILLFTGAVTRAMRMPALRAYESAPDHKICVSYGACGVGGGIFHDLYSVWGGSDTIVPIDVWIPGCPPTPAATIHGFAVALGLLQQKIHAVDYRDPTGVTMQPLWPQIPPSQRIAIEREARRLAGYRQGREICDRLLRHLSDDPTGNRVNTWLRDADDPRLNSIVQQLFRVLRGLHD” as the sequence, how does the “soluble on expression in E. coli” value read?
Answer: Its value is “not soluble”.

Question: Which “soluble on expression in E. coli” value does the source give for “MGHHHHHHSHMSSRGHSTLPRTLMAPRMISEGDIGGIAQITSSLFLGRGSVASNRHLLQARGITCIVNATIEIPNFNWPQFEYVKVPLADMPHAPIGLYFDTVADKIHSVSRKHGATLVHCAAGVSRSATLCIAYLMKFHNVCLLEAYNWVKARRPVIRPNVGFWRQLIDYERQLFGKSTVKMVQTPYGIVPDVYEKESRHLMPYWGI” here?
Answer: Its value is “not soluble”.

Question: Which “soluble on expression in E. coli” value does the source give for “MGHHHHHHSHMTQDRPLLAVQEALKKCFPVVEEQQGLWQSALRDCQPLLSSLSNLAEQLQAAQNLRFEDVPALRAFPDLKERLRRKQLVAGDIVLDKLGERLAILLKVRDMVSSHVERVFQIYEQHADTVGIDAVLQPSAVSPSVADMLEWLQDIERHYRKSYLKRKYLLSSIQWGDLANIQALPKAWDRISKDEHQDLVQDILLNVSFFLEE” here?
Answer: Its value is “not soluble”.

Question: Which “soluble on expression in E. coli” value does the source give for “MGHHHHHHSHMTSELDIFVGNTTLIDEDVYRLWLDGYSVTDAVALRVRSGILEQTGATAAVLQSDTMDHYRTFHMLERLLHAPPKLLHQLIFQIPPSRQALLIERYYAFDEAFVREVLGKKLSKGTKKDLDDISTKTGITLKSCRRQFDNFKRVFKVVEEMRGSLVDNIQQHFLLSDRLARDYAAIVFFANNRFETGKKKLQYLSFGDFAFCAELMIQNWTLGAVGEAPTDP” here?
Answer: The value was “not soluble”.

Question: With “MGHHHHHHSHMYAAGLGMLEPTKEPLKPLSAAEKIASIGQTATMSPDMNTCTSDQFQESLPPVQFDWSSSGLTNPLDGVDPELYELTTSKLEISTSSLKVTDAFARLMSTVEKTSTSTSRKPKREEHLSEEAIKVIAGLPDLTFMHAKVLMFPATLTPSTSSQEKADG” as the sequence, how does the “soluble on expression in E. coli” value read?
Answer: Its value is “not soluble”.

Question: For “MGHHHHHHSHMYFFSKHPEASIQAVFSDAQMHIWALEGLSHLVAASFTEDRFGVVQTTLPAILNTLLTLQEAVDKYFKLPHASSKPPRISGSLVDTSYKTLRFAFRASLKTAIYRITTTFGEHLNAVQASAEHQKRLQQFLEFKE”, which “soluble on expression in E. coli” value is on record?
Answer: Its value is “soluble”.

Question: Which “soluble on expression in E. coli” value does the source give for “MGHHHHHHSHSSPEREITLVNLKKDAKYGLGFQIIGGEKMGRLDLGIFISSVAPGGPADLDGCLKPGDRLISVNSVSLEGVSHHAAIEILQNAPEDVTLVISQPKEKISKVPSTPVHLTNEMKNYMKKSSYMQDSAIDSSSKDHHWSRGTLRHISENSFGPSGGLREGSLSSQDSRTESASLSQSQVNGFFASHLGDQ” here?
Answer: The value was “not soluble”.

Question: For “MGHHHHHHSHSTKDRKIIPLKMCFAARNLSMPDLENRLIELHSPDSRNTLILRCKDTATAHSWFVAIHTNIMALLPQVLAELNAMLGATSTAGGSKEVKHIAWLAEQAKLDGGRQQWRPVLMAVTEKDLLLYDCMPWTRDAWASPCHSYPLVATRLVHSGSGCRSPSLGSDLTFATRTGSRQGIEMHLFRVETHRDLSSWTRILVQGCHAAAEL”, which “soluble on expression in E. coli” value is on record?
Answer: The value was “not soluble”.

Question: For “MGHHHHHHSHTQDKNYEDELTQVALALVEDVINYAVKIVEEERNPLKNIKWMTHGEFTVEKGLKQIDEYFSKCVSKKCWAHGVEFVERKDLIHSFLYIYYVHWSISTADLPVARISAGTYFTMKVSKTKPPDAPIVVSYVGDHQALVHRPGMVRFRENWQKNLTDAKYSFMESFPFLFNRV”, which “soluble on expression in E. coli” value is on record?
Answer: The value was “not soluble”.

Question: For “MGHPETTKFHHLSTKVTISVPEEECYGSTNRTSFNGEDIEEVLEAILKSGMKLKMEKSNFGHAKIKFLGYIVLEEGIQTDPKTIKAIAKFPQPENVTDVRKFIGFALY”, which “soluble on expression in E. coli” value is on record?
Answer: The value was “not soluble”.

Question: For “MGIRVVFERPQGGERAVLVQLALPGVDADKALAEFEELALSAKAEVLDCVLGARATPDAKYYVGKGKAEEIAHLVNMLDADLVLVNHELSPSQERNLERLFGCRVVDRSGLILDIFAQRARTFEGKLQVELAQLQHLSTRLIRGWTHLERQKGGIGLRGPGETQLETDRRLLRERIRYINKRLEKVRCSRDQNRQARRKASMPTVSLVGYTNAGKSTLFNVLTGEHTYVADQLFATLDPTMRKLELPGSSAAILADTVGFIRDLPHHLVEAFRATLEETQQADLLLHVIDISDPNWRETVFEVQKVLDELKVNNIPVIQVFNKIDLQEGWQPKIDYTEDSCKVWLSATTGAGLDLLKEAIATQLHGMILIEDIVIKPDQAKLRAQLYQLGAVLKESVDENGDWLMKIRITADQKRRLLSAAALEHHHHHH”, which “soluble on expression in E. coli” value is on record?
Answer: Its value is “not soluble”.

Question: For “MGISTFFLSVTLFTVNRTCDLLTPPPWYPITVKNTHHTSRHRSIFFILSVMIGKGTREDVQLSLSSLFQGVVMIVGQNPQAPSDLGIEGGERAQGQNAHSVHGPGLQTERGGSQLQMVGHPLRELLEHHHHHH”, which “soluble on expression in E. coli” value is on record?
Answer: The value was “not soluble”.

Question: Which “soluble on expression in E. coli” value does the source give for “MGKEQFREADKALKVVGVKFAPGDCEFMRQTAHVPIFNNKLYEDVEGKLQPANYGPLDPKMGVSTKTGTCSTCGLGLTDCVGHFGYFDLDVPVFHIGFFKLTIQLLQCICKNCSSILLTPEQHRVFSRQVMNPNLDYLHRKALHKRIVAACKKGSTCSHCGLKNGTVKKAVGAVLKIAFASPVSVDELGKFATMFSSNQEVGDHVRKMKFTLLNPLFVQKLFSNIKEGDIPVLMVRSGEEKHPNDLLLTRMPVPPVCIRPSVVSEVKAGTTEDDVTMKLMEIMLTNDVLKKHKRDGAPSKTLFETWEHLQIQCALYINSEMSGLPPDMQPKRAMRAFTQRLKGKQGRFRGNLCGKRVDFSGRTVISPDPNLRIDQVGVPIHVAMTLTFPEIVNASNIEKMRQLVINGSDVHPGANYLVEKKTGNKKLLKYGKRDELAKNLRMGDTIERHLDDNDVVLFNRQPSLHKISIMSHRAKVMPGRTFRFNECACTPYNADFDGDEMNLHLPQTYEAKAEASELMNVKNNLITPRSGEPLVAAIQDFITGGYLLTHKDTFLPRAEVYRFAAALIDASAKKQTKIRIPPPAIRRPVELWTGKQLIELIIRPDKGSDVSLNLTAKNKSYTGNLELCSKDSYVIIRNSVLLAGCLDKSLLGSSSKVNIFYMLMRDYGEDAAVDAMWRLARMAPVFLSNRGFSIGIGDVRPSEQLLREKGQLVDNGYSKCSQYIKELEEGKLKAQPGCTEEETLESIILRELSTIRDHAGQVCLRNLSKYNAPLTMAVCGSKGSFINISQMIACVGQQAISGHRPPDGFEERSLPHFERKKKTPEAKGFVANSFYSGLTPTEFFFHTMGGREGLVDTAVKTAETGYMQRRLVKCLEDLCASYDGTVRSSVGDVIEFVFGEDGLDPAMMEAKDGSVVDFTHVLEHAKNIQTTKEQPIPVDKLDEVLKAEIQKKFKGKYVHFADKLSEYITQTEIKKSKKWQNGKAHCGNHETADLKTKESCKICKNLEAYKTSLLANSCLTKTQLCSFIELCYYKVARAITEPGTAVGAIAATSIGEPSTQMTLKTFHFAGVASMNITQGVPRIKEIINAVKTISTPIITAALLDPYDESLARRVKARIEKTTLGEICDYIEEVYLPDDYFLLVKLNSKRIRLLQLEVCMESISYAIATSKVCPQMRGCKIVAHGKTMMAIRPPSTSKLSKTMTMQILKYSLANVVVKGIPSVNRCVIHADEKKGDFYSLLVEGTDFRSVLSSVGVDPRKTNFNNALVVADVLGIEAARSCIINEIIATMDAHGIGLDRRHVMLLADVMTYRGEVLGITRNGLVKMKDSVLLLASFEKTMDHLFEAAFFSQRDVIHGVSECIIMGTPMTVGTGTFKLMQKYDKKAVLKQNSPIFERLNVTL” here?
Answer: Its value is “not soluble”.

Question: For “MGKFISGSIVAILTDQIEESTACNLKHLLRNDPLFKPLIQTNVHKKRSAYEIIGVHTCEENEPCRIGRTRSCLCQEDFVCDKTPANKNVHLCTKLGYFRLFEANKK”, which “soluble on expression in E. coli” value is on record?
Answer: The value was “not soluble”.

Question: Which “soluble on expression in E. coli” value does the source give for “MGKGVRDPGSDGSLRRKELAMIKVEDMMTRHPHTLLRTHTLNDAKHLMEALDIRHVPIVDANKKLLGIVSQRDLLAAQESSLQRSAQGDSLAFETPLFEVMHTDVTSVAPQAGLKESAIYMQKHKIGCLPVVAKDVLVGIITDSDFVTIAINLLELQEESEPDELDEEQ” here?
Answer: Its value is “not soluble”.

Question: Which “soluble on expression in E. coli” value does the source give for “MGKIGIFFGTDSGNAEAIAEKISKAIGNAEVVDVAKASKEQFNSFTKVILVAPTAGAGDLQTDWEDFLGTLEASDFANKTIGLVGLGDQDTYSETFAEGIFHIYEKAKAGKVVGQTSTDGYHFEASKAVEGGKFVGLVIDEDNQDDLTDERISKWVEQVKGSFA” here?
Answer: The value was “soluble”.

Question: With “MGKKHKKHKSDKHLYEEYVEKPLKLVLKVGGNEVTELSTGSSGHDSSLFEDKNDHDKHKDRKRKKRKKGEKQIPGEEKGRKRRRVKEDKKKRDRDRVENEAEKDLQCHAPVRLDLPPEKPLTSSLAKQEEVEQTPLQEALNQLMRQLQRKDPSAFFSFPVTDFIAPGYSMIIKHPMDFSTMKEKIKNNDYQSIEELKDNFKLMCTNAMIYNKPETIYYKAAKKLLHSGMKILSQERIQSLKQSIDFMADLQKTRKQKDGTDTSQSGEDGGCWQREREDSGDAEAHAFKSPSKENKKKDKDMLEDKFKSNNLEREQEQLDRIVKESGGKLTRRLVNSQCEFERRKPDGTTTLGLLHPVDPIVGEPGYCPVRLGMTTGRLQSGVNTLQGFKEDKRNKVTPVLYLNYGPYSSYAPHYDSTFANISKDDSDLIYSTYGEDSDLPSDFSIHEFLATCQDYPYVMADSLLDVLTKGGHSRTLQEMEMSLPEDEGHTRTLDTAKEMEITEVEPPGRLDSSTQDRLIALKAVTNFGVPVEVFDSEEAEIFQKKLDETTRLLRELQEAQNERLSTRPPPNMICLLGPSYREMHLAEQVTNNLKELAQQVTPGDIVSTYGVRKAMGISIPSPVMENNFVDLTEDTEEPKKTDVAECGPGGS” as the sequence, how does the “soluble on expression in E. coli” value read?
Answer: The value was “soluble”.

Question: Which “soluble on expression in E. coli” value does the source give for “MGKKYEIFLNENEHSLITPKVSFKEILRYYYLYPKNAIPSFKLPFFKPDLSGFSTPHITWLGHSSLFISFKEYKILIDPIFNTHASPISFINKAFKNAPVYNINDFNEIFAVIITHSHFDHLDAKSVKALKDKAKFFITPLKVGNYLKSYGVSEKKIIELDWWSGIEFGDLKIMATPAQHSSSRGDGKNKTLWASFVMEFLSVDKRVFFSADGGYFTHFKKIGEYFGSFDLACLESGQFNIAWPYSHSFPEQILKEAKDLNAKAVMPIHWGRFLAGTHAWNEVVKFLYENLDLPLITPKMGEAYEVGAKLEHHHHHH” here?
Answer: Its value is “soluble”.

Question: Which “soluble on expression in E. coli” value does the source give for “MGKVLVIYDTRTGNTKKMAELVAEGARSLEGTEVRLKHVDEATKEDVLWADGLAVGSPTNMGLVSWKMKRFFDDVLGDLWGEIDGKIACAFSSSGGWGGGNEVACMSILTMLMNFGFLVFGVTDYVGKKFTLHYGAVVAGEPRSEEEKEACRRLGRRLAEWVAIFVDGRKELLEKIRKDPARFVD” here?
Answer: The value was “soluble”.
